± gives the uncertainty stated by the source.
B1: Formin-binding protein 4, residues 200 to 261; numbered along this chain, Q8N3X1 (parent)
chain: SGWQYDTQCSLAGVGIEMGDWQEVWDENTGCYYYWNTQTNEVTWELPQYLATQVQGLQHYQP

Variants of: B1
Test: abundance fitness (aPCA) (normalised: wild type 0, dead -1); higher = more abundant; growth selection in yeast, the domain comes from the species named
Conditions: Homo sapiens

Variant	abundance fitness
SGWQYDTQCSLAGVGIEMGDWQEVWDENTGCYYYWNTQTNEVTWESPQYLATQVQGLQHYQP [L46S]	-0.779 ± 0.12
SGWQYDTQCSLAGVGIEMGDWQEVWDENTGCYYYWNTQTNEVTWEHPQYLATQVQGLQHYQP [L46H]	-0.626 ± 0.35
SGWQYDTQCSLAGVGIEMGDWQEVWDENTGCYYYWNTQTNEVTWEQPQYLATQVQGLQHYQP [L46Q]	-0.264 ± 0.14
SGWQYDTQCSLAGVGIEMGDWQEVWDENTGCYYYWNTQTNEVTWEMPQYLATQVQGLQHYQP [L46M]	-0.224 ± 0.088
SGWQYDTQCSLAGVGIEMGDWQEVWDENTGCYYYWNTQTNEVTWERPQYLATQVQGLQHYQP [L46R]	-0.467 ± 0.085
SGWQYDTQCSLAGVGIEMGDWQEVWDENTGCYYYWNTQTNEVTWEWPQYLATQVQGLQHYQP [L46W]	-0.493 ± 0.1
SGWQYDTQCSLAGVGIEMGDWQEVWDENTGCYYYWNTQTNEVTWEFPQYLATQVQGLQHYQP [L46F]	-0.46 ± 0.17
SGWQYDTQCSLAGVGIEMGDWQEVWDENTGCYYYWNTQTNEVTWEPPQYLATQVQGLQHYQP [L46P]	-0.454 ± 0.12
SGWQYDTQCSLAGVGIEMGDWQEVWDENTGCYYYWNTQTNEVTWEAPQYLATQVQGLQHYQP [L46A]	-0.461 ± 0.092
SGWQYDTQCSLAGVGIEMGDWQEVWDENTGCYYYWNTQTNEVTWECPQYLATQVQGLQHYQP [L46C]	-0.309 ± 0.15
SGWQYDTQCSLAGVGIEMGDWQEVWDENTGCYYYWNTQTNEVTWEYPQYLATQVQGLQHYQP [L46Y]	-0.059 ± 0.16
SGWQYDTQCSLAGVGIEMGDWQEVWDENTGCYYYWNTQTNEVTWEVPQYLATQVQGLQHYQP [L46V]	-0.303 ± 0.074
SGWQYDTQCSLAGVGIEMGDWQEVWDENTGCYYYWNTQTNEVTWEDPQYLATQVQGLQHYQP [L46D]	-1.08 ± 0.34
SGWQYDTQCSLAGVGIEMGDWQEVWDENTGCYYYWNTQTNEVTWETPQYLATQVQGLQHYQP [L46T]	-0.229 ± 0.091
SGWQYDTQCSLAGVGIEMGDWQEVWDENTGCYYYWNTQTNEVTWEEPQYLATQVQGLQHYQP [L46E]	-0.525 ± 0.12
SGWQYDTQCSLAGVGIEMGDWQEVWDENTGCYYYWNTQTNEVTWNLPQYLATQVQGLQHYQP [E45N]	-0.282 ± 0.14
SGWQYDTQCSLAGVGIEMGDWQEVWDENTGCYYYWNTQTNEVTWRLPQYLATQVQGLQHYQP [E45R]	-0.165 ± 0.074
SGWQYDTQCSLAGVGIEMGDWQEVWDENTGCYYYWNTQTNEVTWQLPQYLATQVQGLQHYQP [E45Q]	0.05 ± 0.16
SGWQYDTQCSLAGVGIEMGDWQEVWDENTGCYYYWNTQTNEVTWYLPQYLATQVQGLQHYQP [E45Y]	-0.484 ± 0.16
SGWQYDTQCSLAGVGIEMGDWQEVWDENTGCYYYWNTQTNEVTWVLPQYLATQVQGLQHYQP [E45V]	-0.294 ± 0.084
SGWQYDTQCSLAGVGIEMGDWQEVWDENTGCYYYWNTQTNEVTWPLPQYLATQVQGLQHYQP [E45P]	-0.552 ± 0.15
SGWQYDTQCSLAGVGIEMGDWQEVWDENTGCYYYWNTQTNEVTWWLPQYLATQVQGLQHYQP [E45W]	-0.598 ± 0.13

Variant	abundance fitness
SGWQYDTQCSLAGVGIEMGDWQEVWDENTGCYYYWNTQTNEVTWKLPQYLATQVQGLQHYQP [E45K]	-0.069 ± 0.15
SGWQYDTQCSLAGVGIEMGDWQEVWDENTGCYYYWNTQTNEVTWTLPQYLATQVQGLQHYQP [E45T]	-0.076 ± 0.12
SGWQYDTQCSLAGVGIEMGDWQEVWDENTGCYYYWNTQTNEVTWLLPQYLATQVQGLQHYQP [E45L]	-0.21 ± 0.069
SGWQYDTQCSLAGVGIEMGDWQEVWDENTGCYYYWNTQTNEVTWMLPQYLATQVQGLQHYQP [E45M]	-0.325 ± 0.14
SGWQYDTQCSLAGVGIEMGDWQEVWDENTGCYYYWNTQTNEVTWELPQELATQVQGLQHYQP [Y49E]	0.09 ± 0.08
SGWQYDTQCSLAGVGIEMGDWQEVWDENTGCYYYWNTQTNEVTWELPQWLATQVQGLQHYQP [Y49W]	-0.266 ± 0.093
SGWQYDTQCSLAGVGIEMGDWQEVWDENTGCYYYWNTQTNEVTWELPQSLATQVQGLQHYQP [Y49S]	0.126 ± 0.065
SGWQYDTQCSLAGVGIEMGDWQEVWDENTGCYYYWNTQTNEVTWELPQFLATQVQGLQHYQP [Y49F]	0.004 ± 0.097
SGWQYDTQCSLAGVGIEMGDWQEVWDENTGCYYYWNTQTNEVTWELPQKLATQVQGLQHYQP [Y49K]	-0.181 ± 0.12
SGWQYDTQCSLAGVGIEMGDWQEVWDENTGCYYYWNTQTNEVTWELPQNLATQVQGLQHYQP [Y49N]	-0.162 ± 0.12
SGWQYDTQCSLAGVGIEMGDWQEVWDENTGCYYYWNTQTNEVTWELPQLLATQVQGLQHYQP [Y49L]	-0.126 ± 0.062
SGWQYDTQCSLAGVGIEMGDWQEVWDENTGCYYYWNTQTNEVTWELPQRLATQVQGLQHYQP [Y49R]	-0.527 ± 0.088
SGWQYDTQCSLAGVGIEMGDWQEVWDENTGCYYYWNTQTNEVTWELPQILATQVQGLQHYQP [Y49I]	0.081 ± 0.15
SGWQYDTQCSLAGVGIEMGDWQEVWDENTGCYYYWNTQTNEVTWELPQTLATQVQGLQHYQP [Y49T]	-0.007 ± 0.089
SGWQYDTQCSLAGVGIEMGDWQEVWDENTGCYYYWNTQTNEVTWELPQALATQVQGLQHYQP [Y49A]	0.022 ± 0.086
SGWQYDTQCSLAGVGIEMGDWQEVWDENTGCYYYWNTQTNEVTWELPQDLATQVQGLQHYQP [Y49D]	-0.006 ± 0.11
SGWQYDTQCSLAGVGIEMGDWQEVWDENTGCYYYWNTQTNEVTWELPQMLATQVQGLQHYQP [Y49M]	-0.113 ± 0.084
SGWQYDTQCSLAGVGIEMGDWQEVWDENTGCYYYWNTQTNEVTWELPQHLATQVQGLQHYQP [Y49H]	0.118 ± 0.12
SGWQYDTQCSLAGVGIEMGDWQEVWDENTGCYYYWNTQTNEVTWELPQCLATQVQGLQHYQP [Y49C]	-0.069 ± 0.11
SGWQYDTQCSLAGVGIEMGDWQEVWDENTGCYYYWNTQTNEVTWELPQVLATQVQGLQHYQP [Y49V]	-0.097 ± 0.067
SGWQYDTQCSLAGVGIEMGDWQEVWDENTGCYYYWNTQTNEVTWELPQPLATQVQGLQHYQP [Y49P]	-0.165 ± 0.084
